{"source": "patent US12269859B2", "about": "“Synthetic immune receptors and methods of use thereof” (Angeles Therapeutics, Inc., priority 2016, dated 2025)", "key": {"RAJI cells": {"tested_on": "RAJI cells", "assay": "RAJI xenograft model of lymphoma in NSG mice (survival)", "format": "in vivo", "settings": "200 ng/mouse intraperitoneal three times, with SIR-T cells", "experimental": "In vivo efficacy of SIR targeting CD19. […] SIR constructs and Gluc-PAC-G07 control construct encoding non-secretory form of Guassia Luciferase. Approximately half the cells were selected with puromycin while the other half was expanded without puromycin selection. NSG mice (Jackson Lab) were sub-lethally irradiated at a dose of 175 cGy. Approximately 24 hours post irradiation (day 2), mice were injected with 2.5×10^4 RAJI cells via tail-vein. […] Control mice (n=5) received no T cells or uninfected T cells. Mice were given human IL2 (400 IU intraperitoneally) on alternate days till the death of all mice in control group.\nApproximately half the cells were selected with puromycin while the other half was expanded without puromycin selection. NSG mice (Jackson Lab) were sub-lethally irradiated at a dose of 175 cGy. Approximately 24 hours post irradiation (day 2), mice were injected with 2.5×10^4 RAJI cells via tail-vein. […] Control mice (n=5) received no T cells or uninfected T cells. Mice were given human IL2 (400 IU intraperitoneally) on alternate days till the death of all mice in control group.\nSIR construct. NSG mice (Jackson Lab) were sub-lethally irradiated at a dose of 175 cGy. Approximately 24 hours post irradiation (day 2), mice were injected with 2.5×10^4 RAJI cells via tail-vein. […] SIR encoding lentivirus. […]"}, "[1]": {"tested_on": "target antigen-expressing cell line", "assay": "Jurkat NFAT-GFP assay, coculture with target cell lines expressing the respective target antigen (summary Table 10A)", "format": "cell-based, human", "set-up": "key: The signs +/−, +, 2+ etc. after the name of the cell lines indicate the relative degree of positivity on the Jurkat-NFAT-GFP assay as measured by the % GFP positive cells; +: relative degree of positivity on the Jurkat-NFAT-GFP assay as measured by the % GFP positive cells; 2+: relative degree of positivity on the Jurkat-NFAT-GFP assay as measured by the % GFP positive cells", "in_short": "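Jurkat cells carrying an NFAT-driven GFP reporter and lentivirally expressing a SIR were cocultured with antigen-bearing target cells (E:T ~1:2) for about 4–18 h. GFP induction read by flow cytometry as % GFP+ cells, scored positive and graded (+/−, +, 2+) against parental Jurkat-NFAT-GFP cells.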"}, "SKOV-3 cells": {"tested_on": "SKOV-3 cells", "assay": "SKOV-3 intraperitoneal xenograft in NSG mice (survival)", "format": "in vivo", "settings": "NSG mice (n = 3), 1×10^6 SKOV-3 cells intraperitoneally, 5 million T cells intravenously", "experimental": "Human peripheral blood T cells isolated using CD3 magnetic beads were infected with lentiviruses expressing the indicated SIR constructs targeting Folate receptor 1 (FR1), L1CAM and Epcam1. On day 1, the NSG mice were sub-lethally irradiated at a dose of 175 cGy. 24 hours post irradiation (day 2), mice were injected with 1×10^6 SKOV-3 cells intraperitoneally. On day 3, the mice were treated intravenously with 5 million indicated CAR-T cells. Beginning On day 4, mice were injected with human IL-2 i.p. at a dose of 400 IU/mice every alternate day after the injection CAR-T cells till the death of all mice in control group."}}}
{"molecule": "IL-7: exogenous recombinant human IL-7 (protein, UniProt P13232 26-177, looked up) Interleukin-7: DCDIEGKDGKQYESVLMVSIDQLLDSMKEIGSNCLNNEFNFFKRHICDANKEGMFLFRAARKLRQFLKMNSTGDFDLHLLKVSEGTTILLNCTGQVKGRKPAALGEAQPTKSLEENKSLKEQKKLNDLCFLKRLLQEIKTCWNKILMGTKEH", "values": [{"measurement": "tumor rejection and survival (in words)", "setting": "RAJI cells", "value": "reject their tumor and survive longer"}]}
{"molecule": "010716-G03 (protein, Synthetic Immune Receptor (SIR)) MALPVTALLLPLALLLHAARPDIQMTQSFSSLSASVGDRVTITCRASQDISNYLNWYQQKPGKAPKLLIYYTSRLHSGVPSRFSGSGSGTDYTLTISSLQPEDFATYFCQQGNTLPWTFGGGTKLEIKRLEGKPIPNPLLGLDSTGSGEDLKNVFPPEVAVFEPSKAEIAHTQKATLVCLATGFYPDHVELSWWVNGKEVHSGVCTDPQPLKEQPALNDSRYCLSSRLRVSATFWQNPRNHFRCQVQFYGLSENDEWTQDRAKPVTQIVSAEAWGRADCGITSASYHQGVLSATILYEILLGKATLYAVLVSALVLMAMVKRKDSRGRAKRSGSGATNFSLLKQAGDVEENPGPTSMDWIWRILFLVGAATGAHSFEEVQLVQSGGGLVQSGGSLRLSCRASGYTFTRYWMLWVRQRPGKGLEWVAEINPRNDRTNYNEKFKTRFTISVDRSKNTLYLQMDSLRAEDTAVYFCALGGGYAMDYWGQGTLVTVSSTREQKLISEEDGSGIQNPDPAVYQLRDSKSSDKSVCLFTDFDSQTNVSQSKDSDVYITDKCVLDMRSMDFKSNSAVAWSNKSDFACANAFNNSIIPEDTFFPSSDVPCDVKLVEKSFETDTNLNFQNLSVIGFRILLLKVAGFNLLMTLRLWSSRAKRSGSGVKQTLNFDLLKLAGDVESNPGPSRGHMTEYKPTVRLATRDDVPRAVRTLAAAFADYPATRHTVDPDRHIERVTELQELFLTRVGLDIGKVWVADDGAAVAVWTTPESVEAGAVFAEIGPRMAELSGSRLAAQQQMEGLLAPHRPKEPAWFLATVGVSPDHQGKGLGSAVVLPGVEAAERAGVPAFLETSAPRNLPFYERLGFTVTADVEVPEGPRTWCMTRKPGA", "values": [{"measurement": "NFAT-GFP ASSAY Positive Cell lines", "setting": "[1]; coculture with A549 cells", "value": "LoVo (+), A549 (+),"}, {"measurement": "NFAT-GFP ASSAY Positive Cell lines", "setting": "[1]; coculture with LoVo cells", "value": "LoVo (+), A549 (+),"}, {"measurement": "Median Survival", "setting": "SKOV-3 cells", "value": 63, "unit": "days"}]}
